Data published in publication PMC7763487 (2020).

B1: (Flag)3-TET1 full-length Δ1+2 (Δ109–120 + Δ1132–1202) [mouse] / (HA)3-NANOG [mouse] (parent complex)
chain 1: MSRSRPAKPSKSVKTKLQKKKDIQMKTKTSKQAVRHGASAKAVNPGKPKQLIKRRDGKKETEDKTPTPAPSFLTRAGAARMNRDRNQVLFQNPDSLTCNGFTMALRRTTPKPKKVPPSKKQCTHNIQDEPGVKHSENDSVPSQHATVSPGTENGEQNRCLVEGESQEITQSCPVFEERIEDTQSCISASGNLEAEISWPLEGTHCEELLSHQTSDNECTSPQECAPLPQRSTSEVTSQKNTSNQLADLSSQVESIKLSDPSPNPTGSDHNGFPDSSFRIVPELDLKTCMPLDESVYPTALIRFILAGSQPDVFDTKPQEKTLITTPEQVGSHPNQVLDATSVLGQAFSTLPLQWGFSGANLVQVEALGKGSDSPEDLGAITMLNQQETVAMDMDRNATPDLPIFLPKPPNTVATYSSPLLGPEPHSSTSCGLEVQGATPILTLDSGHTPQLPPNPESSSVPLVIAANGTRAEKQFGTSLFPAVPQGFTVAAENEVQHAPLDLTQGSQAAPSKLEGEISRVSITGSADVKATAMSMPVTQASTSSPPCNSTPPMVERRKRKACGVCEPCQQKANCGECTYCKNRKNSHQICKKRKCEVLKKKPEATSQAQVTKENKRPQREKKPKVLKTDFNNKPVNGPKSESMDCSRRGHGEEEQRLDLITHPLENVRKNAGGMTGIEVEKWAPNKKSHLAEGQVKGSCDANLTGVENPQPSEDDKQQTNPSPTFAQTIRNGMKNVHCLPTDTHLPLNKLNHEEFSKALGNNSSKLLTDPSNCKDAMSVTTSGGECDHLKGPRNTLLFQKPGLNCRSGAEPTIFNNHPNTHSAGSRPHPPEKVPNKEPKDGSPVQPSLLSLMKDRRLTLEQVVAIEALTQLSEAPSESSSPSKPEKDEEAHQKTASLLNSCKAILHSVRKDLQDPNVQGKGLHHDTVVFNGQNRTFKSPDSFATNQALIKSQGYPSSPTAEKKGAAGGRAPFDGFENSHPLPIESHNLENCSQVLSCDQNLSSHDPSCQDAPYSQIEEDVAAQLTQLASTINHINAEVRNAESTPESLVAKNTKQKHSQEKRMVHQKPPSSTQTKPSVPSAKPKKAQKKARATPHANKRKKKPPARSSQENDQKKQEQLAKEKVKVEPSDSLPTCQFKTESGGQTFAEPADNSQGQPMVSVNQEAHPLPQSPPSNQCANIMAGAAQTQFHLGAQENLVHQIPPPTLPGTSPDTLLPDPASILRKGKVLHFDGITVVTEKREAQTSSNGPLGPTTDSAQSEFKESIMDLLSKPAKNLIAGLKEQEAAPCDCDGGTQKEKGPYYTHLGAGPSVAAVRELMETRFGQKGKAIRIEKIVFTGKEGKSSQGCPVAKWVIRRSGPEEKLICLVRERVDHHCSTAVIVVLILLWEGIPRLMADRLYKELTENLRSYSGHPTDRRCTLNKKRTCTCQGIDPKTCGASFSFGCSWSMYFNGCKFGRSENPRKFRLAPNYPLHNYYKRITGMSSEGSDVKTGWIIPDRKTLISREEKQLEKNLQELATVLAPLYKQMAPVAYQNQVEYEEVAGDCRLGNEEGRPFSGVTCCMDFCAHSHKDIHNMHNGSTVVCTLIRADGRDTNCPEDEQLHVLPLYRLADTDEFGSVEGMKAKIKSGAIQVNGPTRKRRLRFTEPVPRCGKRAKMKQNHNKSGSHNTKSFSSASSTSHLVKDESTDFCPLQASSAETSTCTYSKTASGGFAETSSILHCTMPSGAHSGANAAAGECTGTVQPAEVAAHPHQSLPTADSPVHAEPLTSPSEQLTSNQSNQQLPLLSNSQKLASCQVEDERHPEADEPQHPEDDNLPQLDEFWSDSEEIYADPSFGGVAIAPIHGSVLIECARKELHATTSLRSPKRGVPFRVSLVFYQHKSLNKPNHGFDINKIKCKCKKVTKKKPADRECPDVSPEANLSHQIPSRVASTLTRDNVVTVSPYSLTHVAGPYNRWV
chain 2: MSVGLPGPHSLPSSEEASNSGNASSMPAVFHPENYSCLQGSATEMLCTEAASPRPSSEDLPLQGSPDSSTSPKQKLSSPEADKGPEEEENKVLARKQKMRTVFSQAQLCALKDRFQKQKYLSLQQMQELSSILNLSYKQVKTWFQNQRMKCKRWQKNQWLKTSNGLIQKGSAPVEYPSIHCSYPQGYLVNASGSLSMWGSQTWTNPTWSSQTWTNPTWNNQTWTNPTWSSQAWTAQSWNGQPWNAAPLHNFGEDFLQPYVQLQQNFSASDLEVNLEATRESHAHFSTPQALELFLNYSVTPPGEI

Variants of: B1
Assay: co-immunoprecipitation (anti-Flag IP), quantified immunoblot; E14/T ESCs; parent: 0.29; read off a plot

Row | screen value | Variant
1 | ~0.065 | chain 1 F1440A, chain 1 F1442A, chain 1 W1446A, chain 1 Y1449A, chain 1 F1450A, chain 1 F1455A, chain 1 F1464A
